Assay results: patent publication US5847088A, “Antibodies specific for platelet-activating factor acetylhydrolase” (ICOS Corporation, priority 1995, dated 1998)

Assay: PAF-AH activity of PAF-AH products expressed in E. coli (hydrolysis of 3H-acetate from [acetyl-3H] PAF)
Format: biochemical
Conditions: amino acid substitution products expressed in E. coli

Row | Molecule | PAF-AH activity
1 | S108A: PAF-AH analog with single amino acid substitution, expressed in E. coli (protein) MVPPKLHVLFCLCGCLAVVYPFDWQYINPVAHMKSSAWVNKIQVLMAAASFGQTKIPRGNGPYSVGCTDLMFDHTNKGTFLRLYYPSQDNDRLDTLWIPNKEYFWGLAKFLGTHWLMGNILRLLFGSMTTPANWNSPLRPGEKYPLVVFSHGLGAFRTLYSAIGIDLASHGFIVAAVEHRDRSASATYYFKDQSAAEIGDKSWLYLRTLKQEEETHIRNEQVRQRAKECSQALSLILDIDHGKPVKNALDLKFDMEQLKDSIDREKIAVIGHSFGGATVIQTLSEDQRFRCGIALDAWMFPLGDEVYSRIPQPLFFINSEYFQYPANIIKMKKCYSPDKERKMITIRGSVHQNFADFTFATGKIIGHMLKLKGDIDSNVAIDLSNKASLAFLQKHLGLHKDFDQWDCLIEGDDENLIPGTNINTTNQHIMLQNSSGIEKYN | ++++ (wild type PAF-AH activity of about 40-60 U/ml/OD600)
2 | D296A: PAF-AH analog, Asp296 changed to alanine (protein) MVPPKLHVLFCLCGCLAVVYPFDWQYINPVAHMKSSAWVNKIQVLMAAASFGQTKIPRGNGPYSVGCTDLMFDHTNKGTFLRLYYPSQDNDRLDTLWIPNKEYFWGLSKFLGTHWLMGNILRLLFGSMTTPANWNSPLRPGEKYPLVVFSHGLGAFRTLYSAIGIDLASHGFIVAAVEHRDRSASATYYFKDQSAAEIGDKSWLYLRTLKQEEETHIRNEQVRQRAKECSQALSLILDIDHGKPVKNALDLKFDMEQLKDSIDREKIAVIGHSFGGATVIQTLSEDQRFRCGIALAAWMFPLGDEVYSRIPQPLFFINSEYFQYPANIIKMKKCYSPDKERKMITIRGSVHQNFADFTFATGKIIGHMLKLKGDIDSNVAIDLSNKASLAFLQKHLGLHKDFDQWDCLIEGDDENLIPGTNINTTNQHIMLQNSSGIEKYN | - (<1 U/ml/OD600 activity)
3 | D338A: PAF-AH analog with single amino acid substitution (protein) MVPPKLHVLFCLCGCLAVVYPFDWQYINPVAHMKSSAWVNKIQVLMAAASFGQTKIPRGNGPYSVGCTDLMFDHTNKGTFLRLYYPSQDNDRLDTLWIPNKEYFWGLSKFLGTHWLMGNILRLLFGSMTTPANWNSPLRPGEKYPLVVFSHGLGAFRTLYSAIGIDLASHGFIVAAVEHRDRSASATYYFKDQSAAEIGDKSWLYLRTLKQEEETHIRNEQVRQRAKECSQALSLILDIDHGKPVKNALDLKFDMEQLKDSIDREKIAVIGHSFGGATVIQTLSEDQRFRCGIALDAWMFPLGDEVYSRIPQPLFFINSEYFQYPANIIKMKKCYSPAKERKMITIRGSVHQNFADFTFATGKIIGHMLKLKGDIDSNVAIDLSNKASLAFLQKHLGLHKDFDQWDCLIEGDDENLIPGTNINTTNQHIMLQNSSGIEKYN | ++++ (wild type PAF-AH activity of about 40-60 U/ml/OD600)
4 | D304A: PAF-AH analog with single amino acid substitution (protein) MVPPKLHVLFCLCGCLAVVYPFDWQYINPVAHMKSSAWVNKIQVLMAAASFGQTKIPRGNGPYSVGCTDLMFDHTNKGTFLRLYYPSQDNDRLDTLWIPNKEYFWGLSKFLGTHWLMGNILRLLFGSMTTPANWNSPLRPGEKYPLVVFSHGLGAFRTLYSAIGIDLASHGFIVAAVEHRDRSASATYYFKDQSAAEIGDKSWLYLRTLKQEEETHIRNEQVRQRAKECSQALSLILDIDHGKPVKNALDLKFDMEQLKDSIDREKIAVIGHSFGGATVIQTLSEDQRFRCGIALDAWMFPLGAEVYSRIPQPLFFINSEYFQYPANIIKMKKCYSPDKERKMITIRGSVHQNFADFTFATGKIIGHMLKLKGDIDSNVAIDLSNKASLAFLQKHLGLHKDFDQWDCLIEGDDENLIPGTNINTTNQHIMLQNSSGIEKYN | ++++ (wild type PAF-AH activity of about 40-60 U/ml/OD600)
5 | C67S: PAF-AH analog, cysteine mutated to serine (protein) MVPPKLHVLFCLCGCLAVVYPFDWQYINPVAHMKSSAWVNKIQVLMAAASFGQTKIPRGNGPYSVGSTDLMFDHTNKGTFLRLYYPSQDNDRLDTLWIPNKEYFWGLSKFLGTHWLMGNILRLLFGSMTTPANWNSPLRPGEKYPLVVFSHGLGAFRTLYSAIGIDLASHGFIVAAVEHRDRSASATYYFKDQSAAEIGDKSWLYLRTLKQEEETHIRNEQVRQRAKECSQALSLILDIDHGKPVKNALDLKFDMEQLKDSIDREKIAVIGHSFGGATVIQTLSEDQRFRCGIALDAWMFPLGDEVYSRIPQPLFFINSEYFQYPANIIKMKKCYSPDKERKMITIRGSVHQNFADFTFATGKIIGHMLKLKGDIDSNVAIDLSNKASLAFLQKHLGLHKDFDQWDCLIEGDDENLIPGTNINTTNQHIMLQNSSGIEKYN | +++ (about 20-40 U/ml/OD600 activity)
6 | C229S: PAF-AH analog, Cys229 mutated to serine (protein) MVPPKLHVLFCLCGCLAVVYPFDWQYINPVAHMKSSAWVNKIQVLMAAASFGQTKIPRGNGPYSVGCTDLMFDHTNKGTFLRLYYPSQDNDRLDTLWIPNKEYFWGLSKFLGTHWLMGNILRLLFGSMTTPANWNSPLRPGEKYPLVVFSHGLGAFRTLYSAIGIDLASHGFIVAAVEHRDRSASATYYFKDQSAAEIGDKSWLYLRTLKQEEETHIRNEQVRQRAKESSQALSLILDIDHGKPVKNALDLKFDMEQLKDSIDREKIAVIGHSFGGATVIQTLSEDQRFRCGIALDAWMFPLGDEVYSRIPQPLFFINSEYFQYPANIIKMKKCYSPDKERKMITIRGSVHQNFADFTFATGKIIGHMLKLKGDIDSNVAIDLSNKASLAFLQKHLGLHKDFDQWDCLIEGDDENLIPGTNINTTNQHIMLQNSSGIEKYN | + (1-10 U/ml/OD600 activity)
7 | D286A: PAF-AH analog with single amino acid substitution (protein) MVPPKLHVLFCLCGCLAVVYPFDWQYINPVAHMKSSAWVNKIQVLMAAASFGQTKIPRGNGPYSVGCTDLMFDHTNKGTFLRLYYPSQDNDRLDTLWIPNKEYFWGLSKFLGTHWLMGNILRLLFGSMTTPANWNSPLRPGEKYPLVVFSHGLGAFRTLYSAIGIDLASHGFIVAAVEHRDRSASATYYFKDQSAAEIGDKSWLYLRTLKQEEETHIRNEQVRQRAKECSQALSLILDIDHGKPVKNALDLKFDMEQLKDSIDREKIAVIGHSFGGATVIQTLSEAQRFRCGIALDAWMFPLGDEVYSRIPQPLFFINSEYFQYPANIIKMKKCYSPDKERKMITIRGSVHQNFADFTFATGKIIGHMLKLKGDIDSNVAIDLSNKASLAFLQKHLGLHKDFDQWDCLIEGDDENLIPGTNINTTNQHIMLQNSSGIEKYN | - (<1 U/ml/OD600 activity)
8 | H351A: PAF-AH analog, His351 changed to alanine (protein) MVPPKLHVLFCLCGCLAVVYPFDWQYINPVAHMKSSAWVNKIQVLMAAASFGQTKIPRGNGPYSVGCTDLMFDHTNKGTFLRLYYPSQDNDRLDTLWIPNKEYFWGLSKFLGTHWLMGNILRLLFGSMTTPANWNSPLRPGEKYPLVVFSHGLGAFRTLYSAIGIDLASHGFIVAAVEHRDRSASATYYFKDQSAAEIGDKSWLYLRTLKQEEETHIRNEQVRQRAKECSQALSLILDIDHGKPVKNALDLKFDMEQLKDSIDREKIAVIGHSFGGATVIQTLSEDQRFRCGIALDAWMFPLGDEVYSRIPQPLFFINSEYFQYPANIIKMKKCYSPDKERKMITIRGSVAQNFADFTFATGKIIGHMLKLKGDIDSNVAIDLSNKASLAFLQKHLGLHKDFDQWDCLIEGDDENLIPGTNINTTNQHIMLQNSSGIEKYN | - (<1 U/ml/OD600 activity)
9 | D286N: PAF-AH analog with single amino acid substitution (protein) MVPPKLHVLFCLCGCLAVVYPFDWQYINPVAHMKSSAWVNKIQVLMAAASFGQTKIPRGNGPYSVGCTDLMFDHTNKGTFLRLYYPSQDNDRLDTLWIPNKEYFWGLSKFLGTHWLMGNILRLLFGSMTTPANWNSPLRPGEKYPLVVFSHGLGAFRTLYSAIGIDLASHGFIVAAVEHRDRSASATYYFKDQSAAEIGDKSWLYLRTLKQEEETHIRNEQVRQRAKECSQALSLILDIDHGKPVKNALDLKFDMEQLKDSIDREKIAVIGHSFGGATVIQTLSENQRFRCGIALDAWMFPLGDEVYSRIPQPLFFINSEYFQYPANIIKMKKCYSPDKERKMITIRGSVHQNFADFTFATGKIIGHMLKLKGDIDSNVAIDLSNKASLAFLQKHLGLHKDFDQWDCLIEGDDENLIPGTNINTTNQHIMLQNSSGIEKYN | ++ (about 10-20 U/ml/OD600 activity)
10 | S273A: PAF-AH analog, Ser273 changed to alanine (protein) MVPPKLHVLFCLCGCLAVVYPFDWQYINPVAHMKSSAWVNKIQVLMAAASFGQTKIPRGNGPYSVGCTDLMFDHTNKGTFLRLYYPSQDNDRLDTLWIPNKEYFWGLSKFLGTHWLMGNILRLLFGSMTTPANWNSPLRPGEKYPLVVFSHGLGAFRTLYSAIGIDLASHGFIVAAVEHRDRSASATYYFKDQSAAEIGDKSWLYLRTLKQEEETHIRNEQVRQRAKECSQALSLILDIDHGKPVKNALDLKFDMEQLKDSIDREKIAVIGHAFGGATVIQTLSEDQRFRCGIALDAWMFPLGDEVYSRIPQPLFFINSEYFQYPANIIKMKKCYSPDKERKMITIRGSVHQNFADFTFATGKIIGHMLKLKGDIDSNVAIDLSNKASLAFLQKHLGLHKDFDQWDCLIEGDDENLIPGTNINTTNQHIMLQNSSGIEKYN | - (<1 U/ml/OD600 activity)
11 | Wild type: wild type human PAF-AH expressed in E. coli, control of mutation series (protein, UniProt Q13093 22-441, looked up) Platelet-activating factor …: FDWQYINPVAHMKSSAWVNKIQVLMAAASFGQTKIPRGNGPYSVGCTDLMFDHTNKGTFLRLYYPSQDNDRLDTLWIPNKEYFWGLSKFLGTHWLMGNILRLLFGSMTTPANWNSPLRPGEKYPLVVFSHGLGAFRTLYSAIGIDLASHGFIVAAVEHRDRSASATYYFKDQSAAEIGDKSWLYLRTLKQEEETHIRNEQVRQRAKECSQALSLILDIDHGKPVKNALDLKFDMEQLKDSIDREKIAVIGHSFGGATVIQTLSEDQRFRCGIALDAWMFPLGDEVYSRIPQPLFFINSEYFQYPANIIKMKKCYSPDKERKMITIRGSVHQNFADFTFATGKIIGHMLKLKGDIDSNVAIDLSNKASLAFLQKHLGLHKDFDQWDCLIEGDDENLIPGTNINTTNQHIMLQNSSGIEKYN | ++++ (wild type PAF-AH activity of about 40-60 U/ml/OD600)
